From paper PMC6261992, “Structural insight into D-xylose utilization by xylose reductase from Scheffersomyces stipitis” (Scientific Reports, 2018)

Tests used:
[1] = molecular target: the molecule itself; test: SEC; analytical, Superdex increase 200 10/300 GL, 40 mM Tris-HCl pH 8.0, 0 mM NaCl; 0.5 mL at 1 mg/mL; (in 50 and 100 mM NaCl generally separated into monomers)
[2] = substrate: NC(=O)C1=CN([C@@H]2O[C@H](COP(=O)(O)OP(=O)(O)OC[C@H]3O[C@@H](n4cnc5c(N)ncnc54)[C@H](OP(=O)(O)O)[C@@H]3O)[C@@H](O)[C@H]2O)C=CC1; test: purified protein; type: biochemical, Scheffersomyces stipitis; conditions: 150 mM NaCl, 100 mM D-xylose, 100 mM Tris-HCl pH 8.0, 303 K, crystal structure of the complex at 2.0 Å, 30.0 °C, varied: cofactor
[3] = substrate: NC(=O)C1=CN([C@@H]2O[C@H](COP(=O)(O)OP(=O)(O)OC[C@H]3O[C@@H](n4cnc5c(N)ncnc54)[C@H](O)[C@@H]3O)[C@@H](O)[C@H]2O)C=CC1; test: purified protein; type: biochemical, Scheffersomyces stipitis; conditions: 150 mM NaCl, 100 mM D-xylose, 100 mM Tris-HCl pH 8.0, 303 K, 30.0 °C, varied: cofactor

B1: D-xylose reductase from Scheffersomyces stipitis (enzyme, UniProt P31867 1-318, looked up)
chain: MPSIKLNSGYDMPAVGFGCWKVDVDTCSEQIYRAIKTGYRLFDGAEDYANEKLVGAGVKKAIDEGIVKREDLFLTSKLWNNYHHPDNVEKALNRTLSDLQVDYVDLFLIHFPVTFKFVPLEEKYPPGFYCGKGDNFDYEDVPILETWKALEKLVKAGKIRSIGVSNFPGALLLDLLRGATIKPSVLQVEHHPYLQQPRLIEFAQSRGIAVTAYSSFGPQSFVELNQGRALNTSPLFENETIKAIAAKHGKSPAQVLLRWSSQRGIAIIPKSNTVPRLLENKDVNSFDLDEQDFADIAKLDINLRFNDPWDWDKIPIFV
notes: D-xylose reductase (SsXR) of Scheffersomyces stipitis; cloned NdeI/XhoI into pProEX-HTa; The vector adds a 6x-His tag with an rTEV protease cleavage site at the N-terminus; also called SsXR; XR; source: E. coli BL21(DE3)-T1R, purified (Ni-NTA, gel filtration)
- stoichiometry N [1]: 2
- Km [2]: 27.7 ± 2 µM
- kcat [2]: 7.63 ± 0.19 s⁻¹
- Km [3]: 136 ± 17 µM
- kcat [3]: 2.39 ± 0.15 s⁻¹
